According to the supplement of paper PMC7125110:
± gives the standard error. Variants at the floor of the assay were thinned out.

B1: glmS ribozyme (parent)
chain: AUAAAAGCGCCAGAACUACAGAAAUGUAGUUGACGAGGAGGAGGUUUAUCGAAUUUUCGGCGGAUGCCUCCAAA

Legend:
Conditions in all cases: with glucosamine-6-phosphate
glucosamine-6-phosphate [1] = variants of: B1; assay: self-cleavage kobs at 160 uM GlcN6P; higher = faster cleavage; RNA array
Summary of the method: (§1)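 Barcoded ribozyme variants were transcribed in situ on sequenced MiSeq chips by E. coli RNA polymerase. At 37 °C, a hybridised Cy3 probe tracked them while glucosamine-6-phosphate (40 μM to 10 mM) in HEPES/KCl/Mg(OAc)2 buffer flowed in and tiles were imaged over ~14 h. Per-tile medians of signals normalised to baseline and to non-cleaving reference variants were fit to one- or two-exponential decays, giving kobs. kcat and KM came from weighted Michaelis–Menten fits across concentrations.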

glucosamine-6-phosphate [2] = variants of: B1; assay: self-cleavage kobs at 2500 uM GlcN6P; higher = faster cleavage; RNA array
Summary of the method: as §1

glucosamine-6-phosphate [3] = variants of: B1; assay: self-cleavage kobs at 640 uM GlcN6P; higher = faster cleavage; RNA array
Summary of the method: as §1

glucosamine-6-phosphate [4] = variants of: B1; assay: self-cleavage kobs at 10000 uM GlcN6P; higher = faster cleavage; RNA array
Summary of the method: as §1

| Variant | self-cleavage kobs at 160 uM GlcN6P (glucosamine-6-phosphate [1]) | self-cleavage kobs at 2500 uM GlcN6P (glucosamine-6-phosphate [2]) | self-cleavage kobs at 640 uM GlcN6P (glucosamine-6-phosphate [3]) | self-cleavage kobs at 10000 uM GlcN6P (glucosamine-6-phosphate [4]) |
| --- | --- | --- | --- | --- |
| G32U G44U U47G A64C | < 1e-05 s⁻¹ | < 1e-05 s⁻¹ | – | – |
| U31C G35C | < 1e-05 s⁻¹ | < 1e-05 s⁻¹ | < 1e-05 s⁻¹ | < 1e-05 s⁻¹ |
| G13A C34U | < 1e-05 s⁻¹ | < 1e-05 s⁻¹ | < 1e-05 s⁻¹ | – |
| G29U U69C | 3.84e-05 ± 1.5e-05 s⁻¹ | 0.000114 ± 3.1e-05 s⁻¹ | 0.000356 ± 9e-05 s⁻¹ | – |
| G32C G44C C58U G59A U65A C71U | < 1e-05 s⁻¹ | – | – | – |
| A14C G51A C58A C68G | 6.87e-05 ± 1.6e-05 s⁻¹ | 8.83e-05 ± 2.5e-05 s⁻¹ | 8.48e-05 ± 2.9e-05 s⁻¹ | – |
| G29U A42U A48U G62A | < 1e-05 s⁻¹ | < 1e-05 s⁻¹ | – | – |
| A14G G29C C61U C71U | < 1e-05 s⁻¹ | – | < 1e-05 s⁻¹ | < 1e-05 s⁻¹ |
| A14U U47G C68G | 7.2e-05 ± 2.9e-05 s⁻¹ | 5.08e-05 ± 2.3e-05 s⁻¹ | 0.000125 ± 2.8e-05 s⁻¹ | – |
| A15C G38C C70G | < 1e-05 s⁻¹ | – | – | – |
| U31A G63C C68G | < 1e-05 s⁻¹ | – | – | – |
| A14U G29A A52C C61U C68A C71G | 0.000123 ± 3.3e-05 s⁻¹ | 0.00014 ± 5e-05 s⁻¹ | 9.79e-05 ± 2.9e-05 s⁻¹ | – |
| U30C A42U U49A | < 1e-05 s⁻¹ | < 1e-05 s⁻¹ | < 1e-05 s⁻¹ | – |
| A12U G29A C68U | 0.000209 ± 5.1e-05 s⁻¹ | 0.0017 ± 0.0004 s⁻¹ | 0.000265 ± 6.4e-05 s⁻¹ | 0.00275 ± 0.0012 s⁻¹ |
| C16U G51C | < 1e-05 s⁻¹ | < 1e-05 s⁻¹ | < 1e-05 s⁻¹ | – |
| G29A U65A C70U | 7.19e-05 ± 3e-05 s⁻¹ | 0.000148 ± 3.6e-05 s⁻¹ | 8.13e-05 ± 1.7e-05 s⁻¹ | – |
| A15G A33G | < 1e-05 s⁻¹ | – | < 1e-05 s⁻¹ | < 1e-05 s⁻¹ |
| U30C U55A | 3.75e-05 ± 1.3e-05 s⁻¹ | – | 9.3e-05 ± 1.6e-05 s⁻¹ | – |
| U30A C50A | < 1e-05 s⁻¹ | – | – | – |
| A12U G44A U65G C67U | 0.000241 ± 6.5e-05 s⁻¹ | 0.00188 ± 0.00037 s⁻¹ | 0.000969 ± 0.00016 s⁻¹ | – |
| U30C U54A C68A | 7.12e-05 ± 2.1e-05 s⁻¹ | 5.33e-05 ± 2.5e-05 s⁻¹ | – | – |
| A33C G40U G44C U45A G62U | < 1e-05 s⁻¹ | – | – | – |
| G13C U45G U56A G63A U65C | < 1e-05 s⁻¹ | < 1e-05 s⁻¹ | < 1e-05 s⁻¹ | – |
| A33C G35A G51C | < 1e-05 s⁻¹ | < 1e-05 s⁻¹ | < 1e-05 s⁻¹ | – |
| A12U C16A G41C | < 1e-05 s⁻¹ | – | – | – |

| Variant | self-cleavage kobs at 160 uM GlcN6P (glucosamine-6-phosphate [1]) | self-cleavage kobs at 2500 uM GlcN6P (glucosamine-6-phosphate [2]) | self-cleavage kobs at 640 uM GlcN6P (glucosamine-6-phosphate [3]) | self-cleavage kobs at 10000 uM GlcN6P (glucosamine-6-phosphate [4]) |
| --- | --- | --- | --- | --- |
| A15G C16G A33C U49G A53U | < 1e-05 s⁻¹ | – | < 1e-05 s⁻¹ | – |
| U30G G43A U47G | < 1e-05 s⁻¹ | < 1e-05 s⁻¹ | < 1e-05 s⁻¹ | – |
| A15G G51U G59A | < 1e-05 s⁻¹ | < 1e-05 s⁻¹ | – | < 1e-05 s⁻¹ |
| U31G G35A | < 1e-05 s⁻¹ | – | < 1e-05 s⁻¹ | < 1e-05 s⁻¹ |
| A14G G51U | < 1e-05 s⁻¹ | – | – | – |
| A15C G32U G35U | < 1e-05 s⁻¹ | < 1e-05 s⁻¹ | – | – |
| G13C C16G G38A | < 1e-05 s⁻¹ | – | – | – |
| A12U G35C | < 1e-05 s⁻¹ | – | < 1e-05 s⁻¹ | < 1e-05 s⁻¹ |
| U30A G63A | < 1e-05 s⁻¹ | < 1e-05 s⁻¹ | < 1e-05 s⁻¹ | < 1e-05 s⁻¹ |
| G29A U31G C50U C68A | 5.27e-05 ± 2.2e-05 s⁻¹ | 8.2e-05 ± 3.2e-05 s⁻¹ | 7.43e-05 ± 2.9e-05 s⁻¹ | – |
| G13C A42G G51C U56C C67A | < 1e-05 s⁻¹ | < 1e-05 s⁻¹ | – | – |
| U31C G40A A53U | 9.65e-05 ± 3.1e-05 s⁻¹ | – | 7.74e-05 ± 1.7e-05 s⁻¹ | – |
| C16G U30A C58U G59A G60U C67G | < 1e-05 s⁻¹ | – | – | – |
| G32C U69A | < 1e-05 s⁻¹ | – | 0.00639 ± 0.0029 s⁻¹ | 2.46e-05 ± 1.2e-05 s⁻¹ |
| A15C G60C C61U | < 1e-05 s⁻¹ | – | – | – |
| A14G A15G U55G A64G | 0.00524 ± 0.0017 s⁻¹ | – | 0.00775 ± 0.002 s⁻¹ | – |
| U31G A33C U46G A53G G59A G63A | < 1e-05 s⁻¹ | < 1e-05 s⁻¹ | – | – |
| U30A G32A A39G | 6.92e-05 ± 2.4e-05 s⁻¹ | 0.000618 ± 0.0002 s⁻¹ | 0.000602 ± 0.00013 s⁻¹ | 0.00306 ± 0.00073 s⁻¹ |
| A15C A33C U55C | < 1e-05 s⁻¹ | < 1e-05 s⁻¹ | < 1e-05 s⁻¹ | – |
| G13U G43U | < 1e-05 s⁻¹ | – | < 1e-05 s⁻¹ | < 1e-05 s⁻¹ |
| G26U A52G | 9.82e-05 ± 2.9e-05 s⁻¹ | 0.000726 ± 0.00017 s⁻¹ | – | – |
| U30A G59U C61U | < 1e-05 s⁻¹ | – | < 1e-05 s⁻¹ | – |
| A15U A42C | < 1e-05 s⁻¹ | < 1e-05 s⁻¹ | < 1e-05 s⁻¹ | < 1e-05 s⁻¹ |
| A12U U45G U46G | 0.000419 ± 0.00015 s⁻¹ | 0.00499 ± 0.0017 s⁻¹ | – | – |
| A33G A42C | < 1e-05 s⁻¹ | < 1e-05 s⁻¹ | < 1e-05 s⁻¹ | < 1e-05 s⁻¹ |
